{"source": "paper doi:10.1101/2023.06.13.544830", "binders": {"B1": {"name": "PEG10 promoter duplex, biotinylated (dsDNA)", "DNA 1": "AGATCGATTTGC", "DNA 2": "GCAAATCGATCT", "modifications": "5'-biotin on one strand"}}, "molecular_target": "T1, OC2 (CUT-HOX) (human, UniProt O95948 330-485)", "T1 sequence": "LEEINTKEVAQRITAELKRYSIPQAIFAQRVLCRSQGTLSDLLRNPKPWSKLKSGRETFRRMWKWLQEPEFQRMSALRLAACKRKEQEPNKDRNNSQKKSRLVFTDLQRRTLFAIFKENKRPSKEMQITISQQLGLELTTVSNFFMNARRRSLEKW", "assay": "BLI"}
{"binder": "B1", "values": [{"measurement": "binding result", "result": "binds"}]}
